Data published in patent US20220267442A1.

Target: recombinant human TGF-β1 (human) (UniProt P01137)
Assay: cell-based or functional assay

recombinant human TGF-β1 (human), sequence (P01137 279-390 limits assumed): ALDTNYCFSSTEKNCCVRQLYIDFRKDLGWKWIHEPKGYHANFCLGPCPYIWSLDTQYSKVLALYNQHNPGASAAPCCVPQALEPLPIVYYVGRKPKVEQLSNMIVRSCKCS

80% maximal inhibition (IC80), TGF-β signaling reporter assay (TGF-β/SMAD luciferase in HEK293 cells, 10 ng/mL recombinant human TGF-β1): 0.025 µM
B1: anti-TGF-β (αTGF-β, 1D11 clone) (antibody, from another filing, V domains shown)
VH: QVQLQQSGPELVRPGASVKLSCKASGYIFITYWMNWVKQRPGQGLEWIGQIFPASGSTNYNEMFEGKATLTVDTSSSTAYMQLSSLTSEDSAVYYCARGDGNYALDAMDYWGQGTSVTVSS
VL: DIVLTQSPASLAVSLGQRATISCRASESVDSYGNSFMHWYQQKSGQPPKLLIYLASNLESGVPARFSGSGSRTDFTLTIDPVEADDAATYYCQQNNEDPLTFGAGTKLEIK
